Values of other authors, collected in PMC9638026.

Target: TIRR (Homo sapiens) (UniProt Q9BRJ7)
Conditions: cited from earlier work

Chain of TIRR (Homo sapiens) (Q9BRJ7 whole entry): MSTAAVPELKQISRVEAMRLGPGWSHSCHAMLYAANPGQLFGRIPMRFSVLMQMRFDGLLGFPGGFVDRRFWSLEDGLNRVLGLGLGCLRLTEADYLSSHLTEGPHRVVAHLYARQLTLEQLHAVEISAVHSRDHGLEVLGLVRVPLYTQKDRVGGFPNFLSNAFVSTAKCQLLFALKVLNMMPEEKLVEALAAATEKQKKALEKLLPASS
Chain of 53BP1 (Q12888 whole entry): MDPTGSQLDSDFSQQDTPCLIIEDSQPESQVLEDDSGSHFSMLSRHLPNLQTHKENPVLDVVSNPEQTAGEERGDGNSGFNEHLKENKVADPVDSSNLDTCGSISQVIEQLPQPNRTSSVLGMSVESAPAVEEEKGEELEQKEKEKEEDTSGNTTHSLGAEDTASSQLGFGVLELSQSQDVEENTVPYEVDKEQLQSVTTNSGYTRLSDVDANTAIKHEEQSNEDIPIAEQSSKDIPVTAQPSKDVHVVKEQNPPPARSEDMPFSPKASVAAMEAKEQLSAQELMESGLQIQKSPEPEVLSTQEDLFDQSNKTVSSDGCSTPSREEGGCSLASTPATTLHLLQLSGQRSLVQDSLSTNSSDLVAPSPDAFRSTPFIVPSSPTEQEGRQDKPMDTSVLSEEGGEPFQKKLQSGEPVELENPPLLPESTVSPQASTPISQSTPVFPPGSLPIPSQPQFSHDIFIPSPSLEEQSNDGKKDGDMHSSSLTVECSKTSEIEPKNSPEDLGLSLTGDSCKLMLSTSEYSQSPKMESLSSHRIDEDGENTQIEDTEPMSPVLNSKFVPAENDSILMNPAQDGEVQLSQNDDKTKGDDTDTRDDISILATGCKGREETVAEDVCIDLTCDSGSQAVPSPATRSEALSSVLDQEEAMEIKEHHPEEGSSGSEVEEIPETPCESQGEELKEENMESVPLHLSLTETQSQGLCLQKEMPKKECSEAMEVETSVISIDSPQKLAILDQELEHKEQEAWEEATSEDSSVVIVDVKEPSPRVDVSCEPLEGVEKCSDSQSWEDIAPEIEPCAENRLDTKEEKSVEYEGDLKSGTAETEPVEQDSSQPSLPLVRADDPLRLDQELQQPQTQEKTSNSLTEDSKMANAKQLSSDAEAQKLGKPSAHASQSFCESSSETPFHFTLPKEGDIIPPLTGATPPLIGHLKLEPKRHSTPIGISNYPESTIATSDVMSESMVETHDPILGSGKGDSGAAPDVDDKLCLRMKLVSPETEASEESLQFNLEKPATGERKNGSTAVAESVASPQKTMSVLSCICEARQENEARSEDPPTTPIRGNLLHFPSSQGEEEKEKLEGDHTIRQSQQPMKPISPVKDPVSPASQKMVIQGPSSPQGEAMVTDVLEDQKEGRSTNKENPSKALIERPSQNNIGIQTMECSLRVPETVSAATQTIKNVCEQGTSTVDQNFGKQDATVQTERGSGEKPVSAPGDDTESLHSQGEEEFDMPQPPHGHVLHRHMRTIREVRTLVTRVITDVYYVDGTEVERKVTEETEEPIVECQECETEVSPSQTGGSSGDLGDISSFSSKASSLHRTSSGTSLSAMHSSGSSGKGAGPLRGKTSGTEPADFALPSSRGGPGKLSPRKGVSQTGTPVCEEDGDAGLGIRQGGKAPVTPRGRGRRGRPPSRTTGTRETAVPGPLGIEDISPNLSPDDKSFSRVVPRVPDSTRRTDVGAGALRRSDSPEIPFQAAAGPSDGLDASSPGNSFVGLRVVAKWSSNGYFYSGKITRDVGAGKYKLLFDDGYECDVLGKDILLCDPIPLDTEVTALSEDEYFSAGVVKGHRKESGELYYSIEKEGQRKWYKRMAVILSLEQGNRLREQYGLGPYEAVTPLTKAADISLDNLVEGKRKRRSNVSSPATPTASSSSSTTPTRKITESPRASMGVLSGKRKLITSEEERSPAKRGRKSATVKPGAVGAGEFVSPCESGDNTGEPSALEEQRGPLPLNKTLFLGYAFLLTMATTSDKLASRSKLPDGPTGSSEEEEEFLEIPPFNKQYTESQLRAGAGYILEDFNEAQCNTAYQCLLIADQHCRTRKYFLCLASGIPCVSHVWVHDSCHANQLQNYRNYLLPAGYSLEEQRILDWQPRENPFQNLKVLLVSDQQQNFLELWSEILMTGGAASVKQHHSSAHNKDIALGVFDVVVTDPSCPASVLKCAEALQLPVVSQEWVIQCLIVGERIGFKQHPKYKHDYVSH

Substance: 53BP1 (from UniProt Q12888)
- Kd: 1000 nM
